Measured values reported in patent US20190184025A1.

What was measured:
[1] = molecular target: Rat EphA2, biotinylated (in house) (Rat) (UniProt D3ZBN3); assay: SPR, biotinylated rat EphA2 on streptavidin
[2] = molecular target: Human EphA2, biotinylated (in house) (Human) (UniProt P29317); assay: SPR, biotinylated human EphA2 on streptavidin
[3] = molecular target: Mouse EphA2 Fc fusion (Mouse) (UniProt Q03145); assay: SPR, mouse EphA2-Fc captured by anti-human IgG
[4] = molecular target: Mouse EphA2 (Ecto), C-terminal polyHis (Mouse) (UniProt Q03145); assay: FP competition against Reference Compound C (Study 2)
Chain of Mouse EphA2 (Ecto), C-terminal polyHis (Mouse) (Q03145 26-538): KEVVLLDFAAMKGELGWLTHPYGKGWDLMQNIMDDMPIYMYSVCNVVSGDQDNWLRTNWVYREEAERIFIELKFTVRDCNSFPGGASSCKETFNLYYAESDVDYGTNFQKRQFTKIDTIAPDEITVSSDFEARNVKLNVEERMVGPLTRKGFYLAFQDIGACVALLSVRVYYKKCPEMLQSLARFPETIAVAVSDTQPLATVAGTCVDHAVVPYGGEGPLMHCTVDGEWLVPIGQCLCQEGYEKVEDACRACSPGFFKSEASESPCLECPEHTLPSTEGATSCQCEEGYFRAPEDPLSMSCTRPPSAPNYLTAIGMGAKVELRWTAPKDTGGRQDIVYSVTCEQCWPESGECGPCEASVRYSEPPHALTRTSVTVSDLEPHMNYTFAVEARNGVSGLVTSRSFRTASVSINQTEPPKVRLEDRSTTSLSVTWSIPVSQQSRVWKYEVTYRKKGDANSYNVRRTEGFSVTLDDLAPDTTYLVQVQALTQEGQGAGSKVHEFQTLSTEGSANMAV

Chain of Mouse EphA2 Fc fusion (Mouse) (Q03145 26-535 limits assumed): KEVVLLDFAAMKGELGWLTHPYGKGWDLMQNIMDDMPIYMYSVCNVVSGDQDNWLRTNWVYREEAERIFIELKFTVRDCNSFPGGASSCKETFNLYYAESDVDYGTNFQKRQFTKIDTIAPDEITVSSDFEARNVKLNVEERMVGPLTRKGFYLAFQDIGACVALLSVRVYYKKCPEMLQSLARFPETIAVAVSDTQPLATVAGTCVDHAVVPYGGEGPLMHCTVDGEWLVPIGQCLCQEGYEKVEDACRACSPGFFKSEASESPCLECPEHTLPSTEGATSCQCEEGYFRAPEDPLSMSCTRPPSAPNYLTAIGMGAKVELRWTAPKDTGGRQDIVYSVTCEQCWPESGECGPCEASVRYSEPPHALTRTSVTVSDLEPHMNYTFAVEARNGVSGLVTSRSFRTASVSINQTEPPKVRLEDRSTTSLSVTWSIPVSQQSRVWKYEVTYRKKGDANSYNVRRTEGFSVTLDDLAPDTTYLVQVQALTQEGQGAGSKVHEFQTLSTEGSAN

BCY6136 (peptide)
Kd [1]: 2.96 nM
t1/2 [1]: 12.6 min
Kd [2]: 1.17 nM
t1/2 [2]: 10 min
Kd [3]: 2.53 nM
t1/2 [3]: 10.4 min
Ki [4]: 5.5 nM
